Measurements published in article doi:10.1101/2020.01.21.914671.
pKd: −log10 of the molar value. Where “and” joins values, the source holds several entries; their conditions need not be identical. Equal values may be shown once.

Tests used:
[1] = molecular target: human Bak BH3 motif peptide (26-mer) (human); experiment: ITC
[2] = molecular target: human Bax BH3 motif peptide (28-mer) (human); experiment: ITC
[3] = molecular target: TANV16L (tanapoxvirus 16L) lacking the C-terminal 23 residues, wild type (tanapoxvirus); experiment: AUC

“TANV16L (tanapoxvirus 16L) lacking the C-terminal 23 residues, wild type (domain or fragment)” was tested, and the pKd [1] was 7.42, the pKd [2] was 7.15 and the ratio of monomer:dimer [3] was 3.5 :1. For the same substance, the stoichiometry N [3] was 2 and 4.
